Data as given in patent US7897569B2, “Use of HMGB fragments as anti-inflammatory agents” (The Feinstein Institute for Medical Research, priority 2001, dated 2011).
Marks after values point to notes of the source that are not given here.

Legend:
[1] = system: D-galactosamine-sensitized Balb/c mice; assay: Toxicity in D-galactosamine-sensitized Balb/c mice (survival); format: in vivo
Description: The D-galactosamine-sensitized model has been described previously (Galanos et al., Proc Natl. Acad. Sci. USA 76: 5939-5943, 1979; and Lehmann et al., J. Exp. Med. 165: 657-663, 1997). Mice were injected intraperitoneally with 20 mg D-galactosamine-HCL (Sigma)/mouse (in 200 μl PBS) and 0.1 or 1 mg of either HMGB1 B box or vector protein (in 200 μl PBS). Mortality was recorded daily for up to 72 hours after injection; survivors were followed for 2 weeks, and no later deaths from B box toxicity were observed.
To investigate whether the HMGB1 B box has cytokine activity in vivo, we administered HMGB1 B box protein to unanesthetized Balb/c mice sensitized with D-galactosamine (D-gal), a model that is widely used to study cytokine toxicity (Galanos et al., supra). Briefly, mice (20-25 gram, male, Harlan Sprague-Dawley, Indianapolis, Ind.) were intraperitoneally injected with D-gal (20 mg) (Sigma) and B box (0.1 mg/ml/mouse or 1 mg/ml/mouse) or GST tag (vector; 0.1 mg/ml/mouse or 1 mg/ml/mouse), as indicated in Table 1. Survival of the mice was monitored up to 7 days to ensure no late death occurred.

[2] = system: D-galactosamine-sensitized Balb/c mice; assay: Histology and serum cytokines in D-galactosamine-sensitized Balb/c mice; format: in vivo
Description: To further assess the lethality of the HMGB1 B box protein in vivo the HMGB1 B box was again administered to D-galactosamine-sensitized Balb/c mice. Mice (3 per group) received D-gal (20 mg/mouse) plus B box or vector (1 mg/mouse) intraperitoneally for 7 hours and were then sacrificed by decapitation. Blood was collected, and organs (liver, heart, kidney and lung) were harvested and fixed in 10% formaldehyde. Tissue sections were prepared with hematoxylin and eosin staining for histological evaluation (Criterion Inc., Vancouver, Canada). The results of these studies are shown in FIGS. 7A-7J, which are scanned images of hematoxylin and eosin stained kidney sections (FIG. 7A), myocardium sections (FIG. 7C), lung sections (FIG. 7E), and liver sections (FIGS. 7G and 7I) obtained from an untreated mouse and kidney sections (FIG. 7B), myocardium sections (FIG. 7D), lung sections (FIG. 7F), and liver sections (FIGS. 7H and 7J) obtained from mice treated with the HMGB1 B box. […] In FIG. 7J, hepatocyte dropouts are seen surrounded by accumulated polymorphonuclear leukocytes. The arrows in FIG. 7J point to the sites of polymorphonuclear accumulation (dotted) or apoptotic hepatocytes (solid).

HMGB1 = assay: A box antagonism of full length HMGB1 TNF release in RAW 264.7 macrophage cultures (ELISA); format: cell-based; details: co-addition with HMGB1, 16 hours, polymyxin B
Description: Antagonism of full length HMGB1 activity by HMGB1 A box or GST tag (vector control) was also determined by measuring TNF release from RAW 264.7 macrophage cultures stimulated by co-addition of A box with full length HMGB1. RAW 264.7 macrophage cells (ATCC) were seeded into 24-well tissue culture plates and used at 90% confluence. The cells were treated with HMGB1, and/or A boxes as indicated for 16 hours in Optimum I medium (Life Technologies, Grand Island, N.Y.) in the presence of polymyxin B (100 units/ml, Sigma, St. Louis, Mo.) and supernatants were collected for TNF measurement (mouse ELISA kit from R&D System Inc, Minneapolis, Minn.). TNF-inducing activity was expressed as a percentage of the activity achieved with HMG-1 alone. FIG. 4B is a histogram of the effect of HMGB1, alone, A box alone, Vector (control) alone, HMGB1 in combination with A box, and HMGB1 in combination with vector.

[3] = system: Balb/c mice subjected to CLP; assay: Cecal ligation and puncture (CLP) sepsis survival; format: in vivo
Description: Cecal ligation and puncture (CLP) was performed as described previously (Fink and Heard, J. Surg. Res. 49:186-196, 1990; Wichmann et al., Crit. Care Med. 26:2078-2086, 1998; and Remick et al., Shock 4:89-95, 1995). Briefly, Balb/c mice were anesthetized with 75 mg/kg ketamine (Fort Dodge, Fort Dodge, Iowa) and 20 mg/kg of xylazine (Bohringer Ingelheim, St. Joseph, Mo.) intramuscularly. A midline incision was performed, and the cecum was isolated. A 6-0 prolene suture ligature was placed at a level 5.0 mm from the cecal tip away from the ileocecal valve.
The ligated cecal stump was then punctured once with a 22-gauge needle, without direct extrusion of stool. The cecum was then placed back into its normal intra-abdominal position. The abdomen was then closed with a running suture of 6-0 prolene in two layers, peritoneum and fascia separately to prevent leakage of fluid. All animals were resuscitated with a normal saline solution administered sub-cutaneously at 20 ml/kg of body weight. Each mouse received a subcutaneous injection of imipenem (0.5 mg/mouse) (Primaxin, Merck & Co., Inc., West Point, Pa.) 30 minutes after the surgery. Animals were then allowed to recuperate. Mortality was recorded for up to 1 week after the procedure; survivors were followed for 2 weeks to ensure no late mortalities had occurred.
To determine whether the HMGB1 A box can inhibit the lethality of HMGB1 during sepsis, mice were subjected to cecal perforation and treated by administration of A box beginning 24 hours after the onset of sepsis. CLP was performed on male Balb/c mice as described herein. Animals were randomly grouped, with 15-25 mice per group. The HMGB1 A box (60 or 600 μg/mouse each time) or vector (GST tag, 600 μg/mouse) alone was administered intraperitoneally twice daily for 3 days beginning 24 hours after CLP. Survival was monitored twice daily for up to 2 weeks to ensure no late death occurred. […]
Passive immunization of critically ill septic mice with anti-HMGB1 antibodies was also assessed. […] Survival was monitored for 2 weeks. […]

[4] = 1 mg/mouse ip plus D-gal, 7 hours

B1: B box: Human HMGB1 mutant containing only the B box, SEQ ID NO:20 (protein)
chain: FKDPNAPKRLPSAFFLFCSEYRPKIKGEHPGLSIGDVAKKLGEMWNNTAADDKQPYEKKAAKLKEKYEKDIAAY
Alive/total ([1]; 0.1 mg/mouse ip with D-gal 20 mg): 6/6
Alive/total ([1]; 1 mg/mouse ip with D-gal 20 mg): 2/8*
lethality ([1]; D-galactosamine-sensitized mice): lethal to D-galactosamine-sensitized mice in a dose-dependent manner
time to death ([1]; instances in which death occurred): ≤ 12 h
histology of heart [2, 4]: some ischemic changes and loss of cross striation in myocardial fibers
histology of kidneys and lungs [2, 4]: no abnormality
histology of liver [2, 4]: active hepatitis
serum levels of IL-1β ([2]; B box in vivo, Balb/c mice): 15+3 pg/ml
serum levels of IL-6 ([2]; B box in vivo, Balb/c mice): 315+93 pg/ml

B2: A box: Human HMGB1 mutant containing only the A box, SEQ ID NO:21 (A box SEQ ID NO:22) (protein)
chain: MGKGDPKKPTGKMSSYAFFVQTCREEHKKKHPDASVNFSEFSKKCSERWKTMSAKEKGKFEDMAKADKARYEREMKTYIPPKGET
effect on TNF stimulating activity of full length HMGB1 (HMGB1): significantly attenuated
clinical condition and outcome ([3]; 60 μg A box, CLP): most died
clinical condition ([3]; 600 μg/mouse A box, CLP): significantly more alert, active, and to resume feeding behavior
survival ([3]; ip twice daily for 3 days beginning 24 hours after CLP): 68%
